In one data set the test system is isolated rat hearts. The settings on record: cited from earlier work. The source says:
(§1) A common short peptide between two Prolines at position 42 and 47 (PTAMWP) was predicted as the binding site for Cas and FS2 by Kini and co-workers[49]. […] Similar to Cas, block by L-calchin had no ef ...

Data set [1] relates to calcium channel in rabbit cardiac myocytes. Conditions: reduction of calcium channel amplitude; cited from earlier work.
Text: as §1

Data set [2] concerns Cav1.2 (ICav1.2) in isolated adult mouse ventricular myocytes. The format is cell-based. Conditions: L-calchin 5 µM; preliminary; n=7/N=2.
Data set [3] deals with SAN myocytes from Wild-Type mice. The experiment in a line: Spontaneous action potentials, perforated patch-clamp, SAN pacemaker myocytes. The format is cell-based, mouse. Conditions: nifedipine (in Table 1 only 3 µM together with Cas). Here is the method:
(§2) Hearts from Wild-Type and Cav1.3^−/− mice were removed under general anesthesia consisting of 0.01 mg/g xylazine (2% Rompun; Bayer AG) and 0.1 mg/g ketamine (Imalgène;Merial) and immersed in a pre-warmed (36 °C) Tyrode solution containing (mM): 140 NaCl, 5.4 KCl, 1 MgCl2, 1.8 CaCl2, 5.5 D-glucose, and 5 Hepes (adjusted to pH 7.4 with NaOH). […] SAN tissue was excised and transferred into a low-Ca^2+ solution containing (mM): 140 NaCl, 5.4 KCl, 0.5 MgCl2, 0.2 CaCl2, 1.2 KH2PO4, 50 taurine, 5.5 D-glucose, 1 mg/mL BSA, and 5 Hepes–NaOH (adjusted to pH 6.9 with NaOH) for 5 min. Then, enzymatic digestion was carried out for 20-25 min at 36 °C in the low-Ca^2+ solution containing LiberaseTH Research Grade (0.15 mg/mL; Roche, Mannheim, Germany) and elastase (0.5 mg/mL; Worthington, Lakewood, NJ, USA). Digestion was stopped by washing the SAN in a “Kraftbrühe” (KB) medium containing (mM) 100 K-glutamate, 10 K-aspartate, 25 KCl, 10 KH2PO4, 2 MgSO4, 20 taurine, 5 creatine, 0.5 EGTA, 20 D-glucose, 5 Hepes, and 1 mg/mL BSA (adjusted to pH 7.2 with KOH). Single SAN cells were then dissociated from the SAN tissue by manual agitation using a flame-forged Pasteur’s pipette. To recover the automaticity of the SAN cells, Ca^2+ was gradually reintroduced in the cell’s storage solution to a final concentration of 1.8 mM. SAN cells were then left to rest for 1 h before recordings.
(§3) For patch-clamp recordings of SAN myocytes, cells were harvested in custom-made chambers with glass bottoms for cell attachment. Cells were then super-fused with Tyrode’s solution warmed at 36 °C before recording. Action potentials and ionic currents were recorded using an Axon multi-clamp patch-clamp 700B amplifier. Voltage-gated L-type Ca^2+ currents (ICaL) were recorded using standard whole cell patch-clamp configuration. For recording ICaL, we used an extracellular recording solution contained (mM): 135 tetraethylammonium chloride (TEA-Cl), 10 4-aminopyridine (4-AP), 1 MgCl2, 0.03 tetrodotoxin (TTX), 1 g/L Glucose, 2 CaCl2, 10 Hepes, (adjusted to pH = 7.2 with TEAOH). […] Pacemaker activity was recorded by the perforated patch-clamp technique using escin (40 µg/ml). For recording cell automaticity glass pipettes were filled with the intracellular solution contained (mM): 80 K-Aspartate, 50 KCl, 1 MgCl2, 5 HEPES, 2 CaCl2, 5 EGTA, 3 ATP-Na+ salt; pH was adjusted to 7.2 with KOH. Escin was dissolved in sterile H2O and added to the intracellular solution right before each experiment.
We used an extracellular recording solution (Tyrode’s based) contained (mM): 140 NaCl, 5.4 KCl, 1 MgCl2, 1.8 CaCl2, 5 HEPES, 5.5 D-Glucose; pH was set to 7.4 with NaOH. AP parameters have been calculated as reported in Baudot et al.[10]. Data were analyzed using pCLAMP9 (Molecular Devices) and GraphPad Prism (GraphPad) software.
(§4) In all experiments of cellular electrophysiology, we employed synthetized analog of Cas, commercially available at Latoxan (ID: L8109). The native peptide was purified from the venom of Dendroaspis polylepis purchased from Latoxan, as previoulsly described. The pure peptide was obtained after gel filtration, cation exchange and C18 reversed phase chromatography. Its measured molecular mass (7036.26 Da average) was in accordance with the mass calculated from sequence data (7036.22 Da).

For data set [4], the system named is total ICaL (ICav1.2+ICav1.3) in SAN myocytes from wild-type mice. The data set can be described thus: ICaL, patch clamp, SAN myocytes from wild-type mice. It counts as cell-based, mouse. The settings on record: nifedipine 3 µM after Cas 1 µM; holding −55 mV. Here is the method: as §2, §3, §4
The test system of a further data set is Cav1.2 and Cav1.3. The settings on record: cited from earlier work. The source says: Despite the importance of dissecting the physiopathological roles of Cav1.2 and Cav1.3 channels in cardiac myocytes and neuronal cells, no selective pharmacological tool is currently available. […] Both distinct and complementary functions for Cav1.2 and Cav1.3 have been proposed in the central nervous system. For example, Cav1.2 is involved in hippocampal firing, spatial memory and LTP[52], as well as in the myelinisation process.

For data set [5], the target named is native mouse Cav1.2 L-type calcium channel in cardiac myocytes (mouse (endogenous in cardiac myocytes)) (UniProt Q01815).
In data set [6] the target is recombinant Cav1.2 (α1C) L-type calcium channel, Cav1.2-GFP (UniProt Q13936).
Data set [7] addresses native mouse Cav1.2 L-type calcium channel in cardiac myocytes (mouse (endogenous in cardiac myocytes)) (UniProt Q01815). The source holds these as a separate data set.
Data set [8] has the same target. This is another data set of the same source.

Chain of recombinant Cav1.2 (α1C) L-type calcium channel, Cav1.2-GFP (Q13936 other isoform, or with tags, fused parts or gaps): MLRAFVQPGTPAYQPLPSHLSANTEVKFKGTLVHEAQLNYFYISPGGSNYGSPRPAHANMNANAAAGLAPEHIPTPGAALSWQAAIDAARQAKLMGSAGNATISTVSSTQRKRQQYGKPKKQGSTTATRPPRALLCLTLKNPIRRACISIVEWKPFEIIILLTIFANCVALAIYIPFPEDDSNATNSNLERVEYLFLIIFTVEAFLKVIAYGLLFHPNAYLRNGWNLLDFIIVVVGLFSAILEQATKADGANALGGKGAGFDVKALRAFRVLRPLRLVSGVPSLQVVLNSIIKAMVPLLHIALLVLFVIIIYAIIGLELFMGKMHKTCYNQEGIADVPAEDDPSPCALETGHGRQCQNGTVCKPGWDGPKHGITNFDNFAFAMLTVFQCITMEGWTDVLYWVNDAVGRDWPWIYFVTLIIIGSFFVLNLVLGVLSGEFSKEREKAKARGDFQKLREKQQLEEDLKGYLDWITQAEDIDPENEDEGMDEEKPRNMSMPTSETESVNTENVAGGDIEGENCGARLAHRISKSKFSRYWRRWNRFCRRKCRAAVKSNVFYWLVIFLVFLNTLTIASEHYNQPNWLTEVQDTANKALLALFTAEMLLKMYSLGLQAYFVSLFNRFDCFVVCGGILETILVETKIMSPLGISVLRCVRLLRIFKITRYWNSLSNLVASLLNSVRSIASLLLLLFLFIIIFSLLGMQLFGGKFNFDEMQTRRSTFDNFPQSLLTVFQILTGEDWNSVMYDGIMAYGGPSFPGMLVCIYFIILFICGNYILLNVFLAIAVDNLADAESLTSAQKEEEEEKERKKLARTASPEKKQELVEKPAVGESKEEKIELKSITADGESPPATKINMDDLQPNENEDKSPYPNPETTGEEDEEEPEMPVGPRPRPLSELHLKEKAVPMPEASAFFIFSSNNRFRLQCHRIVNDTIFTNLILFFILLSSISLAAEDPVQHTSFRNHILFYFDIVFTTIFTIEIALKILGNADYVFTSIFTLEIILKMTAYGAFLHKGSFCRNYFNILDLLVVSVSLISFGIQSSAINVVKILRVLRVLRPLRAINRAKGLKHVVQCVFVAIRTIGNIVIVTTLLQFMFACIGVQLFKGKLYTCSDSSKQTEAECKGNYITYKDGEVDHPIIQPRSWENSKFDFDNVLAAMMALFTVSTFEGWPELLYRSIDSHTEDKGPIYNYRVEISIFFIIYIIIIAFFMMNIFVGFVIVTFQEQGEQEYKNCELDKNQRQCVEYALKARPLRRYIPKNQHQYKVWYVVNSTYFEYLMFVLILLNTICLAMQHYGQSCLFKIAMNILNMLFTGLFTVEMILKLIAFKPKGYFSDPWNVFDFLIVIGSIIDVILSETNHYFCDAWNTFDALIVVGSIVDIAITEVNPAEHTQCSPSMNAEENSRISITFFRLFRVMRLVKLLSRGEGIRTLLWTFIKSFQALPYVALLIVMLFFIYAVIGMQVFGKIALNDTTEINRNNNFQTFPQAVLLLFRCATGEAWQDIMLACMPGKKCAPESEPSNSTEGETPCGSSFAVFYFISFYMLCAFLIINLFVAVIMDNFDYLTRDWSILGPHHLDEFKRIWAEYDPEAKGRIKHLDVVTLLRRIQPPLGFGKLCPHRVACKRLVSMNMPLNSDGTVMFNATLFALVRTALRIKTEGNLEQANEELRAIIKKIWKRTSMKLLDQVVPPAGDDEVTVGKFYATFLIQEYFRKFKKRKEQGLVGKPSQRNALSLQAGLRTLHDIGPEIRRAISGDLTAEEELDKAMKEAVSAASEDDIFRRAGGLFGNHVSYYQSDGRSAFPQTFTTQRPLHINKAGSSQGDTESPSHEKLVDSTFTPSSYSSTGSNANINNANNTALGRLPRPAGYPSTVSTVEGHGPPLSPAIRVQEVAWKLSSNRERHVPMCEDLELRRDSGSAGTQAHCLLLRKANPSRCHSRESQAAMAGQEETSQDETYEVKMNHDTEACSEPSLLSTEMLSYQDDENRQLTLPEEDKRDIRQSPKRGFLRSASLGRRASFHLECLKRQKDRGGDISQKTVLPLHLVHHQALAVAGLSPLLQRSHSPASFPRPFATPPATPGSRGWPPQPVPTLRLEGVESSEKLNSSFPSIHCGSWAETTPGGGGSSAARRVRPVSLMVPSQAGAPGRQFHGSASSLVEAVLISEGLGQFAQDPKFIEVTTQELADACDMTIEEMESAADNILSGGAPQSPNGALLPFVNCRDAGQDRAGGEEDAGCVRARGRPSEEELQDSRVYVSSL
Chain of native mouse Cav1.2 L-type calcium channel in cardiac myocytes (mouse (endogenous in cardiac myocytes)) (Q01815 whole entry): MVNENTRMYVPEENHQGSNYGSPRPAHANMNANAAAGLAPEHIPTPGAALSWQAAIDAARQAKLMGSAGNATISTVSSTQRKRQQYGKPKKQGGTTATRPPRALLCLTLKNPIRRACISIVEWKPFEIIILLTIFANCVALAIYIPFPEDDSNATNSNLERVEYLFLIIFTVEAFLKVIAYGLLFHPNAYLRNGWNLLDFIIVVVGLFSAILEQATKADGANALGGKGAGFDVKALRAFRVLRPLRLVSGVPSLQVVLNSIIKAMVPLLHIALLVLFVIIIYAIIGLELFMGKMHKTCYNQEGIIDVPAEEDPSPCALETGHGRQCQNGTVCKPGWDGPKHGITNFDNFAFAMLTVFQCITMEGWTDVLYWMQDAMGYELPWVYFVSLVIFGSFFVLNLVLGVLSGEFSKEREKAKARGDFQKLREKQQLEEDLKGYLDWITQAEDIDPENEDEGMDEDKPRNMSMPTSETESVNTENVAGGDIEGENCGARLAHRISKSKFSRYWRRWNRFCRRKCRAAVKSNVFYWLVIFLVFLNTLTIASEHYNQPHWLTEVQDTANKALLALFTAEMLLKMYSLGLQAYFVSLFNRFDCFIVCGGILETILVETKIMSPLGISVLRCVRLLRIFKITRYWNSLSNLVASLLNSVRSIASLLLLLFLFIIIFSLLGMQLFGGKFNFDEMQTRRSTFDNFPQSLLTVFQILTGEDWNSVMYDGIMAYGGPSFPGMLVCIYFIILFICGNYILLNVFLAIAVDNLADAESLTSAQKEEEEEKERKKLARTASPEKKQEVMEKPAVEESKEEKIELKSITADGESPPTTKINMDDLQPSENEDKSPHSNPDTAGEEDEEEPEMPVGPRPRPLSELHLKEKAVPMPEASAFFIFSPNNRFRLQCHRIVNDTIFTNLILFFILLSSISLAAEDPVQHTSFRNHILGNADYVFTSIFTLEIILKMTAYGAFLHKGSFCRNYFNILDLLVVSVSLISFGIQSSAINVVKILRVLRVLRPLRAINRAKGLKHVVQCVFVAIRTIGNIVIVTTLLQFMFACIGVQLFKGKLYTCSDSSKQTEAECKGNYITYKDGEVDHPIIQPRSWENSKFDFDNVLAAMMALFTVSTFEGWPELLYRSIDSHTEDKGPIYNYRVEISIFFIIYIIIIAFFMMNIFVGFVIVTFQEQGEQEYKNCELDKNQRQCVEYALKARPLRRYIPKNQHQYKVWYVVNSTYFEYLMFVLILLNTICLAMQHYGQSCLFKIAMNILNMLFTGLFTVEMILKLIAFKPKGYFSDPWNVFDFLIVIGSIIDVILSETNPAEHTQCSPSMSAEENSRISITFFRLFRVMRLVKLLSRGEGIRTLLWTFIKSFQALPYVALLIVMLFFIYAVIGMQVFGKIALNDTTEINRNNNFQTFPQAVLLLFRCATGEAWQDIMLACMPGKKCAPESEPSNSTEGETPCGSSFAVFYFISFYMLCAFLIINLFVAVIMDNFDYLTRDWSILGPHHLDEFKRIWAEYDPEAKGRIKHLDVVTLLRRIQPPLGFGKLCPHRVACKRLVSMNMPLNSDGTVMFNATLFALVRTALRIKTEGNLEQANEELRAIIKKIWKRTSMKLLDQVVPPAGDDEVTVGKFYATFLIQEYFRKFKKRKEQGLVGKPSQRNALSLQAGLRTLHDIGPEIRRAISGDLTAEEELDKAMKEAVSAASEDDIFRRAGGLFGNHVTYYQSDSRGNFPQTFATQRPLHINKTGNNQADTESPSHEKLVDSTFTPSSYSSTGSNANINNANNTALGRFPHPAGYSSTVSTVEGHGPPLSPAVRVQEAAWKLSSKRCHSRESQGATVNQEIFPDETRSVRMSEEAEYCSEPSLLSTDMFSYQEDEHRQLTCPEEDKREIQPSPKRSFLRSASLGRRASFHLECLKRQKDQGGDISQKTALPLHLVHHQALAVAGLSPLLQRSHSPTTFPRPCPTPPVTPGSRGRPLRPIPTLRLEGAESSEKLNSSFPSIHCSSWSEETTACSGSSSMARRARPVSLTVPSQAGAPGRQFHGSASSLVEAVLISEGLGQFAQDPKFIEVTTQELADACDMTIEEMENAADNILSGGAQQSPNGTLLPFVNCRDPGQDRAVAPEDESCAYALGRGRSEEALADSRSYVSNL

The term IC50 denotes the midpoint of a concentration-inhibition curve. For the molecule “PTAMWP [L-calchin, short peptide between two Prolines at position 42 and 47 (PTAMWP) of Cas and FS2]”, the “effect on peak systolic pressure” value in the data set on isolated rat hearts is “reducing peak systolic pressure”. In addition, the “effect on heart rate” value in the data set with isolated rat hearts (ex vivo) is recorded as “had no effect on heart rate”. The IC50 in data set [1] is about 5000 nM. The “reduction of ICav1.2” value in [2] is reported as “≈ 30%”.
Take `COC(=O)C1=C(C)NC(C)=C(C(=O)OC)C1c1ccccc1[N+](=O)[O-]` [nifedipine, reference compound]: the “effect on pacemaker activity of SAN myocytes” value in data set [3] is recorded as “robustly slows pacemaker activity”. Also, the “block of residual ICaL (Cav1.3-mediated)” value in [4] was “totally blocked”.
`COc1ccc([C@@H]2Sc3ccccc3N(CCN(C)C)C(=O)[C@@H]2OC(C)=O)cc1` [Diltiazem]: in the data set with Cav1.2 and Cav1.3, the “selectivity between Cav1.2 and Cav1.3” value was “without significant selectivity”.
Turning to `COc1ccc(CCN(C)CCCC(C#N)(c2ccc(OC)c(OC)c2)C(C)C)cc1OC` (stereo not drawn) [Verapamil], the “selectivity between Cav1.2 and Cav1.3” value in the data set with Cav1.2 and Cav1.3 was “without significant selectivity”.

B1: calciseptine, synthetized analog (Latoxan L8109) (peptide)
chain: RICYIHKASLPRATKTCVENTCYKMFIRTQREYISERGCGCPTAMWPYQTECCKGDRCNK
As for B1, in [5], the degree of inhibition of ICaL by 300 nM Cas, step to 0 mV from −60 mV, stimulation at 0.2 Hz was 62%; the degree of inhibition of ICaL by 300 nM Cas, step to 0 mV from −60 mV, stimulation at 1 Hz is 63%; the degree of inhibition of ICaL by 300 nM Cas, step to 0 mV from −60 mV, stimulation at 5 Hz amounted to 58%; the percent block of Cav1.2-mediated ICaL in Cav1.3−/− SAN myocytes, 300 nM Cas, step to 0 mV from a holding potential of −40 mV turned out to be 68%. Further, the percent block of Cav1.2-mediated ICaL in Cav1.3−/− SAN myocytes, 300 nM Cas, step to 0 mV from a holding potential of −60 mV in data set [5] is 67%. Besides, in data set [6], the IC50 of inhibition of I (Cav1.2), whole-cell patch clamp on transfected HEK-293T cells (holding potential −60 mV, test 0 mV), dose-effect relationship stood at 92 nM; the inhibition of I (Cav1.2) in averaged current-to-voltage relationships, 300 nM Cas, membrane voltages from −20 mV to +30 mV, transfected HEK-293T cells amounted to 60%; the percent inhibition of I (Cav1.2) in transfected HEK-293T cells, one-step protocol (−60 mV to 0 mV), Cas 100 nM to 1 µM (37% at 100 nM, 70% at 300 nM, 80% at 1 µM) stood at 80%. Besides, the reduction of total ICaL (I (Cav1.2)+I (Cav1.3)) in wild-type mouse SAN myocytes, voltage clamp, 1 µM Cas in data set [7] is 45%.
In the case of PTAMWP [L-calchin], the reduction of I (Cav1.2) in dissociated mouse ventricular myocytes by synthetic L-calchin (preliminary experiments; concentration not stated) in data set [8] was 30%.

The values are drawn from article PMC10762068, “Selective blockade of Cav1.2 (α1C) versus Cav1.3 (α1D) L-type calcium channels by the black mamba toxin calciseptine” (Nature Communications, 2024).
